# From US20250042994A1 (HAINAN SIMCERE ZAIMING PHARMACEUTICAL, published 2025)
# T1: Human CD19-his protein (human, UniProt P15391 20-291)
# T1 construct: bought protein; also called recombinant human CD19-His; CD19 full-length protein; not shown: His tag
# T1 sequence (looked up): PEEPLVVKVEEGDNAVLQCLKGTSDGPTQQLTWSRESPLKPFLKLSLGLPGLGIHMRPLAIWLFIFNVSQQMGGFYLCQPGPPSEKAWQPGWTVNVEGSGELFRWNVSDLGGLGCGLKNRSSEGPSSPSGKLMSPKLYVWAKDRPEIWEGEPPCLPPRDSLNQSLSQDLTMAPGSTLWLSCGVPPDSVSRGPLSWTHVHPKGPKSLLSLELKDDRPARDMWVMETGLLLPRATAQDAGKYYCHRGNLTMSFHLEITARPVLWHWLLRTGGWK
# T2: human CD19 exon1-3-His tag protein (human, UniProt P15391 20-186, limits assumed)
# T2 construct: membrane-distal part of the extracellular region, made in HEK293E cells; not shown: His tag
# T2 sequence (looked up): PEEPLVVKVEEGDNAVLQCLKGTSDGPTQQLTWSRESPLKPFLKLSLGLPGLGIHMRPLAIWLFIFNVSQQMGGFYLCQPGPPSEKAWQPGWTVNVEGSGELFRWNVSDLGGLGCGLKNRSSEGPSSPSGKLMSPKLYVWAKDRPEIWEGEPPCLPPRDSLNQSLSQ
# What was measured:
# Human CD19-his protein = target: T1, Human CD19-his protein; assay: SPR Biacore, Ab captured on Protein A, CD19-His analyte
# Procedure: A sample buffer and a running buffer were HBS-EP+ (10 mM HEPES, 150 mM NaCl, 3 mM EDTA and 0.05% surfactant P20) (GE Healthcare; BR-1006-69). The flow-through cell was set to 25° C. The sample block was set to 16° C. Both were pretreated with the running buffer. In each cycle, an antibody to be detected was first captured with a Protein A chip, and then a single concentration of CD19 antigen protein was injected. The binding and dissociation processes of the antibody and the antigen protein were recorded, and finally Glycine pH 1.5 (GE Healthcare; BR-1003-54) was used to complete chip regeneration. The binding was measured by injecting different concentrations of recombinant human CD19-His proteins in a solution for 240 s with a flow rate of 30 μl/min. The concentration started from 200 nM (see the detailed results for the actual concentration in the test) and was diluted at 1:1, making a total of 5 concentrations. The dissociation phase was monitored for up to 600 s and was triggered by switching from sample solution to running buffer. The surface was regenerated by washing with a 10 mM glycine solution (pH 1.5) for 30 s at a flow rate of 30 μl/min. Bulk refractive index difference was corrected by subtracting the response obtained from the goat anti-human Fc surface. Blank injection was also subtracted (=double reference). For calculation of apparent KD and other kinetic parameters, Langmuir 1:1 model was used.
# [1] = target: T2, human CD19 exon1-3-His tag protein; assay: ELISA on coated human CD19 exon 1-3-His
# Procedure: Human CD19-his protein (purchased from ACROBiosystems, catalog number: CD9-H52H2) was diluted with PBS to a final concentration of 4 μg/mL, and then added to a 96-well ELISA plate at 100 μl/well. The plate was sealed with a plastic film and incubated overnight at 4° C., the plate was washed 2 times with PBS the next day, and then a blocking solution [PBS+2% (w/w) BSA] was added for blocking at room temperature for 2 h. The blocking solution was poured off, and 100 nM gradiently diluted CD19 chimeric antibody or control antibody was added at 50 μl/well. After incubation at 37° C. for 2 h, the plate was washed 3 times with PBS. […] TMB substrate was added at 50 μl/well, and incubated at room temperature for 10 min, and then a stop solution (1.0 N HCl) was added at 50 μl/well. The OD450 nm values were read by an ELISA microplate reader (Multimode Plate Reader, EnSight, purchased from Perkin Elmer).
# CD19 protein contains 4 exons in the extracellular region, in which exons 1-3 are located at the membrane-distal end and exon 4 is located at the membrane-proximal end. […] To identify the distribution of antigen binding epitopes of the chimeric antibodies, human CD19 exon 1-3-His (membrane-distal end) was used to coat at 2 μg/mL according to the ELISA method in example 5.1.
Binder,Kd (Human CD19-his protein) [nM],koff (Human CD19-his protein) [s⁻¹],kon (Human CD19-his protein) [M⁻¹ s⁻¹],binding result [1],EC50 (read off the curve) [1] [nM]
"F3.3.10 (antibody, human IgG1, V domains shown, human-murine chimeric antibody, human IgG1 constant) VH: DVQLQESGPGLAKLSQSLSLTCSVTGYSITSGYYWNWIRQFPGNKLEWMGHISYDGNNNYNPSLKNRISITRDTSKNQFFLKLNSVTTEDTATYYCARENYSNYYFDYWGQGTTLTVSS VL: DIVLTQSPASLAVSLGQRATISCRASQSVSKSSYTYIHWYQQKPGQPPKLLIKYASILQSGVPARFSGSGSGTDFTLNFHPVEEEDTATYYCQHSWEIPYTFGGGTKLEIK",8.47,0.000621,73400,no binding (tested: 100 nM),–
"F3.148.10 (antibody, human IgG1, V domains shown, human-murine chimeric antibody, human IgG1 constant) VH: EVQLQQSGAELVRPGSSVTMSCKTSGYTFTNYGINWVKQRPGQGLEWIGYIFIGNDYTEYNEKFKGKATLTSDTSSSTAYMQLSSLTSEDSAIYFCTRFYSNYYGMDPWGQGTSVTVSS VL: not shown",5.32,0.00119,224000,–,~0.2
"F3.109.1 (antibody, human IgG1, V domains shown, human-murine chimeric antibody, human IgG1 constant) VH: EVQLQQSGAELVRPGSSVKMSCKTSGYTFTSYGINWVKQRPGQGLEWIGYIYIGNDYTEFNEKFKGKATLTSDTSSSTAYMQLSSLTSEDSAIYFCARFYSNSDPMDYWGHGTSVTVSS VL: not shown",5.67,0.00108,190000,–,~0.1
"F6.2.9 (antibody, human IgG1, V domains shown, human-murine chimeric antibody, human IgG1 constant) VH: QVQLQQSGAELVKPGASVKISCKASGYAFSSYWMNWVKQRPGKGLEWIGQIYPGDGDTNYNGKFKGKATLTADKSSSTGYMQLSSLTSEDSAVYFCARSRITSVVDWYFDVWGTGTTVTVSS VL: QIVLSQSPAILSASPGEKVTMTCRASSSVSYMHWYQQKPGSSPKPWIYATSNLASGVPARFSGSGSGTSYSLTISRVEAEDAATYYCQQWSSNPPTFGAGTKLELK",21.7,0.0033,152000,no binding (tested: 100 nM),–
"F3.114.12 (antibody, human IgG1, V domains shown, human-murine chimeric antibody, human IgG1 constant) VH: DVQLQESGPGLVKPSQSLSLTCSVTGYSITSGYDWNWIRQFPGNKLEWMGYISYDGKNNYNPSLRNRISITRDTSKNQFFLKLNSVTTEDTATYYCARRDLRGYFDVWGTGTTVTVSS VL: DIVLTQSPATLSVTPGDRVSLSCRASQSISNYLHWYQQKSHESPRLLIKYASLSISGIPSRFSGSGSGTDFTLSINSVETEDFGVYFCQQSNSWPLTFGAGTKLELK",6.03,0.000465,77000,no binding (tested: 100 nM),–
"F4.276.12 (antibody, human IgG1, V domains shown, human-murine chimeric antibody, human IgG1 constant) VH: EIQLQQSGPELVKPGASVKVSCKASGYAFSAYNMYWVKQSHGKSLEWIGYIDPYNGGTNYNQKFKGKATLTVDKSSSTAYMHLNSLTSEDSAVYYCARDGYEVTYWGQGTLVTVSA VL: QIVLTQSPALMSASLGEEITLTCSASSSVTYMHWSQQKSGTSPRLLIYSTSNLASGVPSRFSGSGSGTFYSLTISSVEAEDAADYYCHQWSSYPWTFGGGTKLEIK",3.33,0.00081,243000,no binding (tested: 100 nM),–
"F3.74.4 (antibody, human IgG1, V domains shown, human-murine chimeric antibody, human IgG1 constant) VH: QVQLQQSGAELVRPGASVTLSCKASGYTFTDYEMHWVKQTPVHGLEWIGGIAPETGLTTYNQKFEDKAILTADKSSRTAYMELRSLTSEDSAVYFCNPNNYGLWGTGTTVTVSS VL: not shown",18.7,0.000879,47100,–,~0.3
"F6.5.20 (antibody, human IgG1, V domains shown, human-murine chimeric antibody, human IgG1 constant) VH: QVQLQQPGAELVKPGASVKLSCKASGYTFTSYWMQWVKQRPGQGLEWIGEIDPSDSYTNYNQKFKGKASLTVDTSSSTAYMQLSSLTSEDSAVYYCARWGLLRNYYVMDYWGQGTSVTVSS VL: EIVLTQSPTTMAASPGEKITITCSASSSISSNYLHWYQQKPGFSPKLLIYRTSNLASGVPARFSGSGSGTSYSLTIGTMEAEDVATYYCQQGSSIPRMLTFGAGTKLELK",5.28,0.00187,355000,no binding (tested: 100 nM),–

# These reach a lower Kd (Human CD19-his protein). Values come first.
Kd (Human CD19-his protein) [nM],koff (Human CD19-his protein) [s⁻¹],kon (Human CD19-his protein) [M⁻¹ s⁻¹],binding result [1],EC50 (read off the curve) [1] [nM],Binder
1.84,0.000151,82100,no binding (tested: 100 nM),–,"F5.10.6 (antibody, human IgG1, V domains shown, human-murine chimeric antibody, human IgG1 constant) VH: DVQLQESGPGLVKPSQSLSLTCSVTDYSITSGYYWTWIRQFPGNKLEWMGYISYDGSTNYNPSLKNRFSITRDTSKNQFFLKLNSVIIEDTATYYCARDRMSTTWYFDVWGTGTTVTVSS VL: DIVLTQSPASLAVSLGQRATISCRASESVDNYGISFMHWYQQKPGQPPKLLIYRASKTESGIPARFSGSGSRTDFTLTINPVETDDVATYYCQQSNKYPRTFGGGTKVEIK"
1.46,0.000245,167000,no binding (tested: 100 nM),–,"F6.12.12 (antibody, human IgG1, V domains shown, human-murine chimeric antibody, human IgG1 constant) VH: DVQLQESGPGLVKPSQSLSLTCSVTGYSITSGYYWIWIRQFPGNKLEWMGYISYDASNKYKPSLKNRISITRDTSKNQFFLKLNSVTAEDTATYFCAREDLRGYFDVWGTGTSVTVSS VL: DIVLTQSPASLAVSLGRRATISCRASQSVSTSGFSYMHWYQQKPGQPPNLLIKYASILQSGVPARFSGSGSGTDFILNIHPVEDVDTATYYCQHSWGIPFTFGSGTKLEIK"
0.839,0.000229,273000,no binding (tested: 100 nM),–,"F2.15.26 (antibody, human IgG1, V domains shown, human-murine chimeric antibody, human IgG1 constant) VH: QVQLKESGPGLVAPSQSLSITCTVSGFSLTDYGVSWIRQSPGKGLEWLGVIWGSGDTYYNSVLESRLSINKDNSKNQVFLKMNSLQTDDAAMYFCAKHSYYGGSFAMDYWGQGTSVTVSS VL: DIQMTQTTSSLSASLGDRVTISCRASQDISNYLNWYQQKPDGTVKLLIYYTSRLHSGVPSRFSGSGSGTDYSLTISNLEQEDIATYFCQQGKTLPWTFGGGTKLEIK"
0.543,8.47e-05,156000,no binding (tested: 100 nM),–,"F3.5.1 (antibody, human IgG1, V domains shown, human-murine chimeric antibody, human IgG1 constant) VH: QAQLQQSGPELVKPGASVKISCKASGYAFSGSWMNWVQQRPGKGLEWIGRIYPGDGDTYYNGKFKDKAILTADKSSSTAYMQLSSLTSEDSAVYFCAQLRYRYVMDYWGQGTSVTVSS VL: DIVLTQSPASLAVSLGQRATISCRASESVSIHGSHLMHWYQQKPGQPPRLLIYAASNLESGVPARFSGSGSETDFTLNIHPVEEEDAATYFCQQGIKDPYTFGGGTKLEIK"
0.294,6.51e-05,221000,no binding (tested: 100 nM),–,"F4.272.13 (antibody, human IgG1, V domains shown, human-murine chimeric antibody, human IgG1 constant) VH: QVQLKESGPGLVAPSQSLSITCTVSGFSLTDYGVSWIRQPPGKGLEWLGVIWGSETTFYNSALKSRLSISKDNSKSQLFLQMNSLQADDTAIYYCAKHHYYGGSFSMDYWGQGTSVTVSS VL: DIQMTQTTSSLSASLGDRVTISCRASQDINNYLNWYQQKPDGTVKFLIYYTSRLHSGVPSRFSGSGSGTDYSLTISDLEQEDIATYFCQQGNTLPYTFGGGTKLEIK"
0.247,0.000111,450000,no binding (tested: 100 nM),–,"F1-mab003 (antibody, human IgG1, V domains shown, human-murine chimeric antibody, human IgG1 constant) VH: EVQLQQSGPELVKPGASVKMSCKASGYTFTDYVMHWVRQTPGQGLEWIGYFNPYNDGTNYNEKFKVKATLTSDKSSTTAYMELSSLTSEDSAVYYCARGVYYYGRDFDYWGQGTTLTVSS VL: DVVLTQTPLSLPVSLGDQASISCRSSQSLENSNGNSYLNWYLQKPGQSPQLLIYRVSNRFSGVLDRFSGSGSGTDFTLKISRVEAEDLGVYFCLQITHVPWTFGGGTKLEIK"
